# Ends that are not written are not given here.
# T1: recombinant human VCAM-1/Fc chimera (human, UniProt P19320 25-698)
# T1 construct: The cell adhesion assay says only 'the VCAM-1 protein'; also called VCAM-1 molecule; VCAM-1 protein; not shown: Fc part of the chimera
# T1 sequence (looked up): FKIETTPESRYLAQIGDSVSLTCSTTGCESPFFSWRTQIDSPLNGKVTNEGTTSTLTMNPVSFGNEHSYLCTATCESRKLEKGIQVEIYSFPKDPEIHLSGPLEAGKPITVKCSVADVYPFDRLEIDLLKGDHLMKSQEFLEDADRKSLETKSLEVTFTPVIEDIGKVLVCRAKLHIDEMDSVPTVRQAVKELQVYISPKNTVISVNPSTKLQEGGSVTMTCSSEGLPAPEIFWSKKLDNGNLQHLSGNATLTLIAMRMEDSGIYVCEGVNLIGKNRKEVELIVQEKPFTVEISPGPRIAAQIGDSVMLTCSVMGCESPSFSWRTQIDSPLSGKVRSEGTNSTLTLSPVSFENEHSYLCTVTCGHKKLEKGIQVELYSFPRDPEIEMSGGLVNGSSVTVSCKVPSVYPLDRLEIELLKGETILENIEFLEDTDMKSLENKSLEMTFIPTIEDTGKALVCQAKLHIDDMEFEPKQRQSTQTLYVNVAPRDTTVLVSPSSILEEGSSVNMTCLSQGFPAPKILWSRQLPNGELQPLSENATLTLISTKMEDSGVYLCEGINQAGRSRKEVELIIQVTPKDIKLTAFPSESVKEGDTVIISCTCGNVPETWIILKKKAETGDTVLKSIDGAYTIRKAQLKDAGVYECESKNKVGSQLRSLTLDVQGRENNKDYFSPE
# How the values were obtained:
# [1] = target: T1, recombinant human VCAM-1/Fc chimera; assay: ELISA: peptide immobilized on the plate, VCAM-1/Fc at increasing concentrations (3.9×10^-9-4.9×10^-7 M), detected with a mouse anti-human VCAM-1 mAb; apparent Kd
# [2] = target: T1, recombinant human VCAM-1/Fc chimera; assay: cell-based or functional assay
binder,measurement,setting,value
"CNNSKSHTC (not fully specified (bridges); also: cyclic, type of ring bond not given here, also called VCAM PEPTIDE) [cyclic peptide CNNSKSHTC (SEQ ID No. 2)]",Kd,[1],0.135 µM
same,"inhibition of cell adhesion (PMA-stimulated Jurkat cells on immobilized VCAM-1), IC50",[2],63 µM

# From patent US20110200533A1 (GUERBET, published 2011)
